Laboratory results from patent US6001988, “High affinity nucleic acid ligands to lectins” (NeXstar Pharmaceuticals, Inc.).

Columns and labels:
[1] = target: T1, wheat germ agglutinin (WGA) (Triticum vulgare, UniProt P10968 P10968:27-197); assay: filter; HBSS, room temp; conditions: tags: free lectin, E Y Laboratories; label: 32P; hairpin
T1 sequence: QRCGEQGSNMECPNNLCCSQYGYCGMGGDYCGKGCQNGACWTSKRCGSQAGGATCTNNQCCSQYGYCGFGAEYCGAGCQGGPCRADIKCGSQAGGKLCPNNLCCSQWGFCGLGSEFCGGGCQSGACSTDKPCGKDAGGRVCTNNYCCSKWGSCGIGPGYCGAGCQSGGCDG
Procedure: (§1) The specifically eluted fraction was processed for use in the following round. Fractions eluted from immobilized WGA were heated at 90° C. for 5 minutes in 1% SDS, 2% β-mercaptoethanol and extracted with phenol/chloroform. RNA was reverse transcribed into cDNA by AMV reverse transcriptase at 48° C. for 60 min in 50 mM Tris-Cl pH (8.3), 60 mM NaCl, 6 mM Mg(OAc)_2, 10 mM DTT, 100 pmol DNA primer, 0.4 mM each of dNTPs, and 0.4 unit/µl AMV RT. […] C) Nitrocellulose Filter Partitioning As described in SELEX Patent Applications, the nitrocellulose filter partitioning method was used to determine the affinity of RNA ligands for WGA and for other proteins. Filter discs (nitrocellulose/cellulose acetate mixed matrix, 0.45 µm pore size, Millipore; or pure nitrocellulose, 0.45 µm pore size, Bio-Rad) were placed on a vacuum manifold and washed with 4 ml of HBSS buffer under vacuum. Reaction mixtures, containing ^32P labeled RNA pools and unlabeled WGA, were incubated in HBSS for 10 min at room temperature, filtered, and then immediately washed with 4 ml HBSS. The filters were air-dried and counted in a Beckman LS6500 liquid scintillation counter without fluor. WGA is a homodimer, molecular weight 43.2 kD, with 4 GlcNAc binding sites per dimer. For affinity calculations, we assume one RNA ligand binding site per monomer (two per dimer). The monomer concentration is defined as 2 times the dimer concentration. The equilibrium dissociation constant, K_d, for an RNA pool or specific ligand that binds monophasically is given by the equation $$K_d=[P_f][R_f]/[RP]$$
The dissociation constants for representative members of families 1–9 and orphan ligands were determined by nitrocellulose filter binding experiments and are listed in Table III. These calculations assume one RNA ligand binding site per WGA monomer.

[2] = target: T2, L-selectin (LS-Rg) (Homo sapiens, UniProt P14151 P14151:39-332); assay: filter; room temp; 1.8 nM at 37 C; conditions: tags: human IgG2 Fc fusion (provided by A. Varki), label: 32P
T2 chain: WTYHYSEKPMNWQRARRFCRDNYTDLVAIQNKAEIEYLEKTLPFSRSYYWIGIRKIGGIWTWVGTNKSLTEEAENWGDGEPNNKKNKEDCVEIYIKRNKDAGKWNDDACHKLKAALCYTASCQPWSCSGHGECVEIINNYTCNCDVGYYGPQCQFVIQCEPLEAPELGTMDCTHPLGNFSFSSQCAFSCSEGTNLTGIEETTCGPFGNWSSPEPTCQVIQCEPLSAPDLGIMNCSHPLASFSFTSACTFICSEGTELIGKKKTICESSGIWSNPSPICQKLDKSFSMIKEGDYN

[3] = target: T2, L-selectin (LS-Rg); assay: filter; room temp; 9.6 nM at 37 C; conditions: tags: human IgG2 Fc fusion (provided by A. Varki); label: 32P
[4] = target: T2, L-selectin (LS-Rg); assay: filter; apparently 37 C column; synthetic full-length 201 control 3.8 nM; conditions: tags: human IgG2 Fc fusion (provided by A. Varki); label: 32P; hairpin
[5] = target: T2, L-selectin (LS-Rg); assay: filter; room temp; 23.2 nM at 37 C; conditions: tags: human IgG2 Fc fusion (provided by A. Varki); label: 32P; hairpin
[6] = target: T3, P-selectin (PS-Rg) (Homo sapiens, UniProt P16109 P16109:42-321); assay: filter; room temp, Ca/Mg buffer; conditions: tags: lectin, EGF and first two CRD domains fused to human IgG1 Fc (provided by A. Varki); chain copies: 2 (dimeric Fc chimera, inferred)
T3 chain: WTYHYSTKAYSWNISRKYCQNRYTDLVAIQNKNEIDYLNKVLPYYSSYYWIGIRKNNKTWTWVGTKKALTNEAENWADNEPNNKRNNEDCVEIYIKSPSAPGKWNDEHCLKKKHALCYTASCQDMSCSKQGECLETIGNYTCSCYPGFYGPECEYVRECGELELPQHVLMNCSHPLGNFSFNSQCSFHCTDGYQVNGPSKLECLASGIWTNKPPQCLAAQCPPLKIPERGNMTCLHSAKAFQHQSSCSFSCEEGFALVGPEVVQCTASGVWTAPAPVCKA
Procedure: as §1, with “RNA” for “The specifically eluted fraction was processed for use in the following round. Fractions eluted from immobilized WGA were heated at 90° C. for 5 minutes in 1% SDS, 2% β-mercaptoethanol and extracted with phenol/chloroform. RNA”
(§2) The affinity of representative cloned ligands for LS-Rg, ES-Rg, PS-Rg, CD22β-Rg and WGA was determined by nitrocellulose partitioning and the results shown in Table XIV. The ligands are highly specific for L-selectin.
(§3) *Kds were determined at room temperature.

[7] = target: T4, E-selectin (ES-Rg) (Homo sapiens, UniProt P16581 P16581:22-556); assay: filter; room temp, Ca/Mg buffer; conditions: tags: extracellular domain fused to human IgG1 Fc (provided by A. Varki); chain copies: 2 (dimeric Fc chimera, inferred)
T4 chain: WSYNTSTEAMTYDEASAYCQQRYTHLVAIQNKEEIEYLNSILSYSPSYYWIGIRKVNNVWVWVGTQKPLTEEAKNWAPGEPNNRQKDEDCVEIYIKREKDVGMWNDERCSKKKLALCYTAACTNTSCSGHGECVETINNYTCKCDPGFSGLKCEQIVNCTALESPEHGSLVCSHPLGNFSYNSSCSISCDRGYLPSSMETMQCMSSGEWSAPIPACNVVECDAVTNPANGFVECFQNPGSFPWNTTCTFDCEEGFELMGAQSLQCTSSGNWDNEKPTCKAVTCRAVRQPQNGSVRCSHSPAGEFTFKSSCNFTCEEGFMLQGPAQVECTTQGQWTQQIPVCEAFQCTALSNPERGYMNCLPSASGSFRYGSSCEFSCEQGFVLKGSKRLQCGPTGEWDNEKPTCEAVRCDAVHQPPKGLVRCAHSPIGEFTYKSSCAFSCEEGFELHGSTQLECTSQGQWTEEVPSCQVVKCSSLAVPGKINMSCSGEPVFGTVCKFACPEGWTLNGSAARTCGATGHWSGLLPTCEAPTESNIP
Procedure: as §1, with “RNA” for “The specifically eluted fraction was processed for use in the following round. Fractions eluted from immobilized WGA were heated at 90° C. for 5 minutes in 1% SDS, 2% β-mercaptoethanol and extracted with phenol/chloroform. RNA”
as §2, §3

[8] = target: T1, wheat germ agglutinin (WGA); assay: filter; HBSS, room temp; printed as 11.2, SEQ 40; conditions: tags: free lectin, E Y Laboratories; label: 32P
Procedure: as §1, with “WGA is a homodimer, molecular weight 43.2 kD, with 4 GlcNAc binding sites per dimer. For affinity calculations, we assume one RNA ligand binding site per monomer (two per dimer). The monomer concentration is defined as 2 times the dimer concentration. The equilibrium dissociation constant, K_d, for an RNA pool or specific ligand that binds monophasically is given by the equation $$K_d=[P_f][R_f]/[RP]$$” left out
The dissociation constants for representative members of families 1–9 and orphan ligands were determined by nitrocellulose filter binding experiments and are listed in Table III. […]

[9] = target: T5, Ulex europaeus lectin UEA-II (Ulex europaeus, UniProt P22973 P22973:1-249); assay: filter; HBSS, room temp; conditions: tags: E Y Laboratories; label: 32P
T5 sequence: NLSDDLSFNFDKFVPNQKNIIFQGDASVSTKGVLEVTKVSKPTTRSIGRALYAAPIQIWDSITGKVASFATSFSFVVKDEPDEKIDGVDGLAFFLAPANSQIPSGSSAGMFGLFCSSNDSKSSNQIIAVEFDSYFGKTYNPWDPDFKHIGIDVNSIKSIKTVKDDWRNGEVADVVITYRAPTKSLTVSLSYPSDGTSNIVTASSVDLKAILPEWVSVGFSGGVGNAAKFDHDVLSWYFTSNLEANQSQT
Procedure: as §1, with “The monomer concentration is defined as 2 times the dimer concentration. The equilibrium dissociation constant, K_d, for an RNA pool or specific ligand that binds monophasically is given by the equation $$K_d=[P_f][R_f]/[RP]$$” left out

[10] = target: T2, L-selectin (LS-Rg); assay: filter; room temp; 590 pM at 37 C; conditions: tags: human IgG2 Fc fusion (provided by A. Varki); label: 32P; hairpin
[11] = target: T2, L-selectin (LS-Rg); assay: filter; room temp; 6.8 nM at 37 C; conditions: tags: human IgG2 Fc fusion (provided by A. Varki); label: 32P; hairpin

B1: 11.27 (ssRNA)
RNA: GGGAAAAGCGAAUCAUACACAAGACGAUGCGAGGCAAGAAAUGGAGUCGUUACGAACCCUCUUGCAGUGCGCGGCUCCGCCAGAGACCAACCGAGAA
modifications: 2'-NH2 all C and U
Kd [1]: 30 nM

B2: 128 (ssDNA)
DNA: CTACCTACGATCTGACTAGCAGGACCAAGGTGTTAAACGGCTCCCCTGGCTATGCCTCTTGCTTACTCTCATGTAGTTCC
Kd ([2]; hairpin): 0.31 nM

B3: 11.4 (ssRNA)
RNA: GGGAAAAGCGAAUCAUACACAAGACAGGCACUGAAAACUCGGCGGGAACGAAAGUAGUGCCGACUCAGACGCGUGCUCCGCCAGAGACCAACCGAGAA
modifications: 2'-NH2 all C and U
Kd [1]: 32 nM

B4: 109 (ssDNA)
DNA: CTACCTACGATCTGACTAGCCCACCGTGATGCACGATACATGAGGGTGTGTCAGCGCATGCTTACTCTCATGTAGTTCC
Kd [3]: 0.19 nM

B5: 201T1 (49-mer) (ssDNA)
DNA: TAGCCAAGGTAACCAGTACAAGGTGCTAAACGTAATGGCTTCGGCTTAC
Kd [4]: 4.8 nM

B6: 112 (ssDNA)
DNA: CTACCTACGATCTGACTAGCCGCATCCACATAGTTCAAGGGGCTACACGAAATATTGCAGCTTACTCTCATGTAGTTCC
Kd [5]: 0.3 nM

B7: 11.12 (ssRNA)
RNA: GGGAAAAGCGAAUCAUACACAAGACGGCUGUGUGUGGUAGCGUCAUAGUAGGAGUCGUCACGAACCAAGGCGCUCCGCCAGAGACCAACCGAGAA
modifications: 2'-NH2 all C and U
Kd [1]: 15.2 nM

B8: 181 (ssDNA)
DNA: CTACCTACGATCTGACTAGCCATCAAGGACTTTGCCCGAAACCCTAGGTTCACGTGTGGGGCTTACTCTCATGTAGTTCC
Kd [2]: 0.084 nM
Kd [6]: 1600 nM
Kd [7]: 37 nM

B9: 11.19 (ssRNA)
RNA: GGGAAAAGCGAAUCAUACACAAGAAAGGGAUGGGAUUGGGACGAGCGGCCAAGACUCGGCGGGAACGAAGGGUGCUCCGCCAGAGACCAACCGAGAA
modifications: 2'-NH2 all C and U
Kd [1]: 22 nM

B10: 6.23 (ssRNA)
RNA: GGGAAAAGCGAAUCAUACACAAGACUCGGCGGGAAUCGAAAGUGUACUGAAUUAGAACGGUGGGCCUGCUCAUCGUGCUCCGCCAGAGACCAACCGAGAA
modifications: 2'-NH2 all C and U
Kd [1]: 824 nM

B11: 11.20 (ssRNA)
RNA: GGGAAAAGCGAAUCAUACACAAGAUUGGUCGUACUGGACAGAGCCGUGGUAGAGGGAUUGGGACAAAGUGUCAGCUCCGCCAGAGACCAACCGAGAA
modifications: 2'-NH2 all C and U
Kd [8]: 1.4 nM
Kd [9]: 2200 nM

B12: 201T3 (41-mer) (ssDNA)
DNA: GTAACCAGTACAAGGTGCTAAACGTAATGGCTTCGGCTTAC
Kd [4]: 43 nM

B13: 179 (ssDNA)
DNA: CTACCTACGATCTGACTAGCCACATGCCTGACGCGGTACAAGGCCTGGACGTAACGTTGGCTTACTCTCATGTAGTTCC
Kd [10]: 0.18 nM

B14: 139 (ssDNA)
DNA: CTACCTACGATCTGACTAGCGGACAAGGCACTCGACGTAGTTTATAACTCCCTCCGGGCCGCTTACTCTCATGTAGTTCC
Kd [11]: 0.21 nM

B15: 233 (ssDNA)
DNA: CTACCTACGATCTGACTAGCCACGACAGAGAACAAGGCGTTAGACGTTATCCGACCACGGCTTACTCTCATGTAGTTCC
Kd [6]: 420 nM
Kd [7]: 39 nM
